One protein from publication PMC5763115, “Nesprin-2 Interacts with Condensin Component SMC2” (International Journal of Cell Biology, 2017) can be followed below.

The series concerns the molecule itself. Nature of the series: SEC; Nesprin-2-SMC released from GST by thrombin, on a Sephadex G-200 gel filtration column; markers ovalbumin 43 kDa, conalbumin 75 kDa, aldolase 158 kDa; fractions also checked by SDS-PAGE. (In general: SEC sorts molecules by how far they enter the pores of the column.)

B1: Nesprin-2-SMC (domain or fragment, human, UniProt Q8WXH0 1436-1766, looked up)
chain: NNELLKNIQDVQSQISKIGLKDPTVPAVKHRKKSLIRLDKVLDEYEEEKRHLQEMANSLPHFKDGREKTVNQQCQNTVVLWENTKALVTECLEQCGRVLELLKQYQNFKSILTTLIQKEESVISLQASYMGKENLKKRIAEIEIVKEEFNEHLEVVDKINQVCKNLQFYLNKMKTFEEPPFEKEANIIVDRWLDINEKTEDYYENLGRALALWDKLFNLKNVIDEWTEKALQKMELHQLTEEDRERLKEELQVHEQKTSEFSRRVAEIQFLLQSSEIPLELQVMESSILNKMEHVQKCLTGESNCHALSGSTAELREDLDQAKTQIGMTES
notes: Nesprin-2, human, SMC domain, aa 1436-1766, spectrin repeats 11-13; Calculated molecular weight 38.78 kDa (39 kDa); also called Nesprin-2-SMC domain; SMC polypeptide; source: E. coli XL-1 blue, purified (Glutathione-Sepharose 4B, released from GST by thrombin cleavage); not shown: GST, N-terminal, cleaved
On to B1, for which the binding result is given as “binds”.
